Measurements published in patent US20110294982A1 (Ablynx, published 2011).
Positions count from the first letter of the chain named. Values belong to the binder of their own block, whether it stands above or below them.

What was measured:
[1] = biological target: T1, recombinant human alphavbeta6 (human, UniProt P06756 31-992; P18564 22-707, limits assumed); experiment: specificity ELISA on coated integrins, periplasmic extract
T1 construct: Bought, carrier free (R&D Systems 3817-AV/CF); also called aVb6

[2] = biological target: T2, recombinant VLA-5 (α5β1 integrin) (UniProt P08648 42-995; P05556 21-728, limits assumed); experiment: ELISA, integrin coated at 0.5 µg/well
T2 construct: also called α5β1 (VLA-5) integrin; a5β1 integrin
Experimental: FIG. 3: Direct binding of VHH-H6 to recombinant α3β1 integrin. Recombinant VLA-3 (α3β1 integrin) or recombinant VLA-5 (a5β1 integrin) were coated into Maxisorb plates at 0.5 μg/well, and binding with VHH-H6 or no VHH (in which anti-Myc was used) was assayed in ELISA. Binding of the VHHs to the integrins is expressed as absorbance at 450 nm. Data represents the mean±standard deviation of three independent experiments

T1 sequence (P06756 31-992 limits assumed, chain 1 of 2): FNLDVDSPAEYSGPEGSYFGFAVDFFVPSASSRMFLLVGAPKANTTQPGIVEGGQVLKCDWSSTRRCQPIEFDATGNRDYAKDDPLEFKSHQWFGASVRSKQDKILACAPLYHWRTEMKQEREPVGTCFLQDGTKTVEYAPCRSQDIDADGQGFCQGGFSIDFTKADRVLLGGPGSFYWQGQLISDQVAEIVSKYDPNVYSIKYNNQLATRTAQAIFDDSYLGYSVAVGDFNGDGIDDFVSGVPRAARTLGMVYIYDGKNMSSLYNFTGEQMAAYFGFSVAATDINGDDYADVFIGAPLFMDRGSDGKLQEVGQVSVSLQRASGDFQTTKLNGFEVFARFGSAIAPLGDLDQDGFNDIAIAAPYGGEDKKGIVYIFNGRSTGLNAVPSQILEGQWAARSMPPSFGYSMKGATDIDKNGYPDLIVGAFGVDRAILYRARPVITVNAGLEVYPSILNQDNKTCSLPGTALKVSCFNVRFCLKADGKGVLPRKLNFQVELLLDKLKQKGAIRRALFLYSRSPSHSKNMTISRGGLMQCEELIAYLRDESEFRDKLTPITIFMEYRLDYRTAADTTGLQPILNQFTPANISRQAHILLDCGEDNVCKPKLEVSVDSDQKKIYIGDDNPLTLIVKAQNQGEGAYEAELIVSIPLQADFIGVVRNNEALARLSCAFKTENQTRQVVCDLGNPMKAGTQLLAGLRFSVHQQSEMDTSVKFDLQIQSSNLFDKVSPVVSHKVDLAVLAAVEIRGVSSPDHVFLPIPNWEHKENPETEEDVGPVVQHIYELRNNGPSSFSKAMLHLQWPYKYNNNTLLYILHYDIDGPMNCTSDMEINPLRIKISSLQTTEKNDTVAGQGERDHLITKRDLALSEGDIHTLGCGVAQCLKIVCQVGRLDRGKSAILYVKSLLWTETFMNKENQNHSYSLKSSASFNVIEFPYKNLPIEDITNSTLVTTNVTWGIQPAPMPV
T1 sequence (P18564 22-707 limits assumed, chain 2 of 2): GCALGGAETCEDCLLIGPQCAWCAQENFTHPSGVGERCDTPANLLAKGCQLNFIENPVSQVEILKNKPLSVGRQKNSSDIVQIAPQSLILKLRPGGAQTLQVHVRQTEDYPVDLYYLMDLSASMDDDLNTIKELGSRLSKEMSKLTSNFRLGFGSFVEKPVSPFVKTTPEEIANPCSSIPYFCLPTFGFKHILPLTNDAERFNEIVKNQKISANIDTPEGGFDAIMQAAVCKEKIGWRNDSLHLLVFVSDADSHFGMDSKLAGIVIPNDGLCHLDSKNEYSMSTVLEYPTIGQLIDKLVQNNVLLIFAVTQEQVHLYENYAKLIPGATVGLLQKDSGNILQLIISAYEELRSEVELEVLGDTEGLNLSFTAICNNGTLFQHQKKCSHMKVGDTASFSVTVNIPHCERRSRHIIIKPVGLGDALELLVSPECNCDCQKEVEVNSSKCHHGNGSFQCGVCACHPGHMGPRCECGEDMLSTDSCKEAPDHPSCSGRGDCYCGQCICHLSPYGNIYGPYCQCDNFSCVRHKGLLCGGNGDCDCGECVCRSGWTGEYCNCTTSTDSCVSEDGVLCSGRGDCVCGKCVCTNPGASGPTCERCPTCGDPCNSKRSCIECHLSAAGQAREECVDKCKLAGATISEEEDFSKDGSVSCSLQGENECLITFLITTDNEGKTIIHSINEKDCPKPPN
T2 sequence (P08648 42-995 limits assumed, chain 1 of 2): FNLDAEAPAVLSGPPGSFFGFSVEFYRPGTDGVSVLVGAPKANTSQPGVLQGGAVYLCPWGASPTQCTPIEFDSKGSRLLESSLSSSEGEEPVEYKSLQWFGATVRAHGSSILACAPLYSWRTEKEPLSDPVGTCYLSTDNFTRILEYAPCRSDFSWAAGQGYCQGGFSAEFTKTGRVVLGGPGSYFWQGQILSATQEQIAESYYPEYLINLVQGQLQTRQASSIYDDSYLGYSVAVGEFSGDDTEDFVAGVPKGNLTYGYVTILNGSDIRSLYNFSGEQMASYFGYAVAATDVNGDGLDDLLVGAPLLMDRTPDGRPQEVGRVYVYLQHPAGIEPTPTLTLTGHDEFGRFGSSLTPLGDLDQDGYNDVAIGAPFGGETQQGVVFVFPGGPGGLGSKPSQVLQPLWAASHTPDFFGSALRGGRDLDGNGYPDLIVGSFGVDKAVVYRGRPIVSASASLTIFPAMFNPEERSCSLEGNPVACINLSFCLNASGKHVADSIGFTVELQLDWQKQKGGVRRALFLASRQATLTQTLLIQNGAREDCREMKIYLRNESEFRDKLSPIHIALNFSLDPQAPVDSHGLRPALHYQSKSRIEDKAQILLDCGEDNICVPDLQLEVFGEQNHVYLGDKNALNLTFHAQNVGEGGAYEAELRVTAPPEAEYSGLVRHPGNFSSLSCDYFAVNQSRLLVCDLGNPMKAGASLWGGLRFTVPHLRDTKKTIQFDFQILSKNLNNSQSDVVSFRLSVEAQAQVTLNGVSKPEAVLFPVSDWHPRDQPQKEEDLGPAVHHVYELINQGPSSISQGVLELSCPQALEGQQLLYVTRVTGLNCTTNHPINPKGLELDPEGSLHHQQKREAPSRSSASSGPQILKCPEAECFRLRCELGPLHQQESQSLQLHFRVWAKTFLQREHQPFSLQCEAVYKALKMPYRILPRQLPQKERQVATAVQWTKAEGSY
T2 sequence (P05556 21-728 limits assumed, chain 2 of 2): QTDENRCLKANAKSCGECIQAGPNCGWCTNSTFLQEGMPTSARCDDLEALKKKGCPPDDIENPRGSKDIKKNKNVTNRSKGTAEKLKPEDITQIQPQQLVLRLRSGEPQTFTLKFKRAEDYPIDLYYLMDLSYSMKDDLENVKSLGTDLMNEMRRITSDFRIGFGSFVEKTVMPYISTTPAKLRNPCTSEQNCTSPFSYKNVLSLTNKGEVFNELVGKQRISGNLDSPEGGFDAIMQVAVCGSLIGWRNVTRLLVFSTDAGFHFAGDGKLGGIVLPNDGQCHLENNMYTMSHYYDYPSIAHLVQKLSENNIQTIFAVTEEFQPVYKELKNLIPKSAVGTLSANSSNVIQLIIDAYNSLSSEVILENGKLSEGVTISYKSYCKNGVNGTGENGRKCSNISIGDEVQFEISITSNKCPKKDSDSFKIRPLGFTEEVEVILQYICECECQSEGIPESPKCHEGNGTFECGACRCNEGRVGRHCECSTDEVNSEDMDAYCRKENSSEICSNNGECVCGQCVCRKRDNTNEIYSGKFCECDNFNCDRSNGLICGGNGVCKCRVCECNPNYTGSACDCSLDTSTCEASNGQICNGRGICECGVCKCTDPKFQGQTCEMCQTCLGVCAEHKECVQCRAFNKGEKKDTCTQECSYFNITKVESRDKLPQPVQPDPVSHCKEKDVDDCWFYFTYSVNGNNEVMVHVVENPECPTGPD

B1: 140-H8 (VHH)
VHH: EVQLVESGGGLVQAGGSLRLSCAASISANAIDVVSWYRQAPGKPRELAASITSAGRIKYAESVKGRFGISRDNAKNTVSLQMNSLKPEDTAVYYCNALYRNAIYWGQGTQVTVSS
- binding result [1]: binds

B4: 140-F10 (VHH)
VHH: EVQLVESGGGSVQAGGSLRLSCAASQRTFSSDVMGWFRQAPGKERDFVAYIHRSGTTYYADSVKGRLTISRDNAKSTVYLQMNSLKPEDTAVYHCAAGRYGSTSDTLYDYWGQGTQVTVSS
- binding result [1]: binds

B6: 140-A5 (VHH)
VHH: EVQLVESGGGSVQAGGSLRLSCAASGTTATITVPGWYRQAPGKQRELVAVINSGGTKKYADSVKGRFTISIDNVKRTLYLEMNSLRPEDTAVYYCSTLKYWGQGTQVTVSS
- binding result [1]: binds

B8: VHH-H6 (VHH)
VHH: QVQLQDSGGGLVQAGGSLRLSCEASGRTFSSYAMGWFRQPPGKEREWVSTISRSGSAIYAYPVKGRFTMSRDNAKNTVYLEMNSLKPEDTAVFYCAAARSGVPSSRPTDYDYWGQGTQVTVSS
notes: Used with a Myc tag (captured/detected with anti-Myc 9E10) and a C-terminal His6 tag (detected with anti-HIS6 (C-term)); also called H6-VHH
- binding result [2]: no binding

B10: 140-H10 (VHH)
VHH: EVPLVESGGGSVQAGGSLRLSCAASQRTFSRDVTGWFRQAPGKERDFVAYIHRSGETTYYADSVKGRFTISRDNAKSTVYLQMNSLKPEDTAVYHCAAGRYGSTSDTLYDYWGQGTQVTVSS
- binding result [1]: binds

B11: 140-G8 (VHH)
VHH: EVQLVESGGGSVQAGGSLRLSCTASGSIFSINDMGWYRQPPGEQRELVATLTSSDSTKYADSVKSRFTISRDNAKNTVYLQMNSLKPEDTAVYYCNAVINRRGDGRNWSREYWGQGTQVTVSS
- binding result [1]: binds

Further lines, results first:

- binding result [1]: binds
B2: 140-A2 (VHH)
VHH: EVQLVESGGGLVQAGGSLRLSCAASGSTYRLNNMAWYRQSPGKKRELVALISGITSDPSTYYLDSVRGRFSISRDNALNTVYLQMNSLKPEDTAVYYCKQAWAGVEYWGQGTQVTVSS

- binding result [1]: binds
B3: 140-D4 (VHH)
VHH: EVQLVESGGGLVEAGGSLRLSCATSGSTFGIEAMAWYRQAPGKQRELVATINSASRTNYADSVKGRFTISRDTGKSILYLQMNNLEPEDTAVYYCKITTPLPYRRDFWGQGTQVTVSS

- binding result [1]: binds
B5: 140-B8 (VHH)
VHH: B4 VHH with S31R, I51S, L67F

- binding result [1]: binds
B7: 140-E10 (VHH)
VHH: EVQLVESGGGLVQAGESLKLSCVASGNILRVTSMGWGRQIPGKQRKLVAWITNEGRTEYADSVKGRFTISRDNAQNTLYLLMNSLKPEDTAVYYCYGFSPRESSGNTYWGQGTQVTVSS

- binding result [1]: binds
B9: 140-A10 (VHH)
VHH: EVQLVESGGGLVQPGGSLRLSCAASGFTFSRMAMGWYRQAPGVERDFLAIISPGGGTNYADSVKGRFTISRDNAKNTVYLQMNSLKPEDTAVYYCNARNFEGRRVDYWGQGTQVTVSS
